According to patent US20250352667A1:

Legend:
[1] = molecular target: KEAP1 (wild-type full-length), His-tagged (human) (UniProt Q14145); experiment: AlphaScreen; 9.6 nM FLAG-NRF2, 150 nM His-KEAP1; Rep 1; control for I28V
[2] = molecular target: KEAP1 (wild-type full-length), His-tagged (human) (UniProt Q14145); experiment: AlphaScreen; 2.4 nM FLAG-NRF2, 150 nM His-KEAP1; Rep 3; control for I86V
[3] = molecular target: KEAP1 (wild-type full-length), His-tagged (human) (UniProt Q14145); experiment: AlphaScreen; 4.8 nM FLAG-NRF2, 150 nM His-KEAP1; Rep 1; control for I86V
[4] = molecular target: KEAP1 (wild-type full-length), His-tagged (human) (UniProt Q14145); experiment: AlphaScreen; 4.8 nM FLAG-NRF2, 150 nM His-KEAP1; Rep 2; control for I86V
[5] = molecular target: KEAP1 (wild-type full-length), His-tagged (human) (UniProt Q14145); experiment: AlphaScreen; 19.2 nM FLAG-NRF2, 150 nM His-KEAP1; Rep 1; control for I28V
[6] = molecular target: KEAP1 (wild-type full-length), His-tagged (human) (UniProt Q14145); experiment: AlphaScreen; 38.4 nM FLAG-NRF2, 150 nM His-KEAP1; Rep 2; control for I28V
[7] = molecular target: KEAP1 (wild-type full-length), His-tagged (human) (UniProt Q14145); experiment: AlphaScreen; 614.4 nM FLAG-NRF2, 150 nM His-KEAP1; Rep 3; control for I86V
[8] = molecular target: KEAP1 (wild-type full-length), His-tagged (human) (UniProt Q14145); experiment: AlphaScreen; 1228.8 nM FLAG-NRF2, 150 nM His-KEAP1; Rep 1; control for I28V
[9] = molecular target: KEAP1 (wild-type full-length), His-tagged (human) (UniProt Q14145); experiment: AlphaScreen; 9.6 nM FLAG-NRF2, 150 nM His-KEAP1 (same value as in Table 26)
[10] = molecular target: KEAP1 (wild-type full-length), His-tagged (human) (UniProt Q14145); experiment: AlphaScreen; 1228.8 nM FLAG-NRF2, 150 nM His-KEAP1; Rep 3; control for I86V
[11] = molecular target: KEAP1 (wild-type full-length), His-tagged (human) (UniProt Q14145); experiment: AlphaScreen; 19.2 nM FLAG-NRF2, 150 nM His-KEAP1; Repeat 2 (same value as in Table 26)
[12] = molecular target: KEAP1 (wild-type full-length), His-tagged (human) (UniProt Q14145); experiment: AlphaScreen; NRF2 wt isoform 1 38.4 nM, KEAP1 150 nM; set as the 100 % reference for Q75R
[13] = molecular target: KEAP1 (wild-type full-length), His-tagged (human) (UniProt Q14145); experiment: AlphaScreen; 76.8 nM FLAG-NRF2, 150 nM His-KEAP1; signal against NRF2 only; control for I28V
[14] = molecular target: KEAP1 (wild-type full-length), His-tagged (human) (UniProt Q14145); experiment: AlphaScreen; FLAG-NRF2 wt isoform 1 9.6 nM, His-KEAP1 150 nM; Rep 1; positive control for Q75R
[15] = molecular target: KEAP1 (wild-type full-length), His-tagged (human) (UniProt Q14145); experiment: AlphaScreen; FLAG-NRF2 wt isoform 1 153.6 nM, His-KEAP1 150 nM; Rep 1; positive control for Q75R
[16] = molecular target: KEAP1 (wild-type full-length), His-tagged (human) (UniProt Q14145); experiment: AlphaScreen; FLAG-NRF2 wt isoform 1 1228.8 nM, His-KEAP1 150 nM; Rep 1; positive control for Q75R
[17] = molecular target: KEAP1 (wild-type full-length), His-tagged (human) (UniProt Q14145); experiment: AlphaScreen; FLAG-NRF2 wt isoform 1 38.4 nM, His-KEAP1 150 nM; Repeat 1; positive control for Q75R
[18] = molecular target: KEAP1 (wild-type full-length), His-tagged (human) (UniProt Q14145); experiment: AlphaScreen; NRF2 wt isoform 1 38.4 nM, KEAP1 150 nM; signal against NRF2-only control; control for I86V
[19] = molecular target: KEAP1 (wild-type full-length), His-tagged (human) (UniProt Q14145); experiment: AlphaScreen; NRF2 wt isoform 1 19.2 nM, KEAP1 150 nM; signal against NRF2-only control; control for Q75R
[20] = molecular target: KEAP1 (wild-type full-length), His-tagged (human) (UniProt Q14145); experiment: AlphaScreen; 307.2 nM FLAG-NRF2, 150 nM His-KEAP1; Rep 2
[21] = molecular target: KEAP1 (wild-type full-length), His-tagged (human) (UniProt Q14145); experiment: AlphaScreen; 9.6 nM FLAG-NRF2, 150 nM His-KEAP1; Repeat 1 (same value as in Table 27)
[22] = molecular target: KEAP1 (wild-type full-length), His-tagged (human) (UniProt Q14145); experiment: AlphaScreen; 38.4 nM FLAG-NRF2, 150 nM His-KEAP1; against wild-type NRF2 isoform 1 = 100%
[23] = molecular target: KEAP1 (wild-type full-length), His-tagged (human) (UniProt Q14145); experiment: AlphaScreen; FLAG-NRF2 I86V 2.4 nM, His-KEAP1 150 nM; Rep 1
[24] = molecular target: KEAP1 (wild-type full-length), His-tagged (human) (UniProt Q14145); experiment: AlphaScreen; FLAG-NRF2 I86V 4.8 nM, His-KEAP1 150 nM; Rep 3
[25] = molecular target: KEAP1 (wild-type full-length), His-tagged (human) (UniProt Q14145); experiment: AlphaScreen; FLAG-NRF2 I86V 614.4 nM, His-KEAP1 150 nM; Rep 1
[26] = molecular target: KEAP1 (wild-type full-length), His-tagged (human) (UniProt Q14145); experiment: AlphaScreen; FLAG-NRF2 I86V 614.4 nM, His-KEAP1 150 nM; Rep 2
[27] = molecular target: KEAP1 (wild-type full-length), His-tagged (human) (UniProt Q14145); experiment: AlphaScreen; FLAG-NRF2 Q75R 76.8 nM, His-KEAP1 150 nM; Rep 2

Chain of KEAP1 (wild-type full-length), His-tagged (human) (Q14145 2-624 limits assumed): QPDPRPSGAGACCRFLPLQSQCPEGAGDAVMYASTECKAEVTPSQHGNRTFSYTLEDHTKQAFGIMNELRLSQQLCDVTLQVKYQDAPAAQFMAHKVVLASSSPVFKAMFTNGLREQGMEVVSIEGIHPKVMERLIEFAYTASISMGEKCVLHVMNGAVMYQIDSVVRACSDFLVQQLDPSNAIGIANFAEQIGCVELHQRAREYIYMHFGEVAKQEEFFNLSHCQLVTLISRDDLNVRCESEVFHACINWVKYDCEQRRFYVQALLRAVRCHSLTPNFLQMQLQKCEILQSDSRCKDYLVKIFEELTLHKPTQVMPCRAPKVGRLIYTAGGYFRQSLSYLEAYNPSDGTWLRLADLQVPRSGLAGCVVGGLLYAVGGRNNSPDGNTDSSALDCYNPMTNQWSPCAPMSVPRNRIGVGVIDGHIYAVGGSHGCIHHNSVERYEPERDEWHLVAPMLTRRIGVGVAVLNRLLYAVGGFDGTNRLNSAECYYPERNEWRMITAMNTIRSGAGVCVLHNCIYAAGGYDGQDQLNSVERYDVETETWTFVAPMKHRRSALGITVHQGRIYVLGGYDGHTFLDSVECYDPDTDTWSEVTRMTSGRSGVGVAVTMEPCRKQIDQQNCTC

B1: NRF2 isoform 1 (wild-type full-length), FLAG-tagged (protein)
chain: MMDLELPPPGLPSQQDMDLIDILWRQDIDLGVSREVFDFSQRRKEYELEKQKKLEKERQEQLQKEQEKAFFAQLQLDEETGEFLPIQPAQHIQSETSGSANYSQVAHIPKSDALYFDDCMQLLAQTFPFVDDNEVSSATFQSLVPDIPGHIESPVFIATNQAQSPETSVAQVAPVDLDGMQQDIEQVWEELLSIPELQCLNIENDKLVETTMVPSPEAKLTEVDNYHFYSSIPSMEKEVGNCSPHFLNAFEDSFSSILSTEDPNQLTVNSLNSDATVNTDFGDEFYSAFIAEPSISNSMPSPATLSHSLSELLNGPIDVSDLSLCKAFNQNHPESTAEFNDSDSGISLNTSPSVASPEHSVESSSYGDTLLGLSDSEVEELDSAPGSVKQNGPKTPVHSSGDMVQPLSPSQGQSTHVHDAQCENTPEKELPVSPGHRKTPFTKDKHSSRLEAHLTRDELRAKALHIPFPVEKIINLPVVDFNEMMSKEQFNEAQLALIRDIRRRGKNKVAAQNCRKRKLENIVELEQDLDHLKDEKEKLLKEKGENDKSLHLLKKQLSTLYLEVFSMLRDEDGKPYSPSEYSLQQTRDGNVFLVPKSKKPDVKKN
- A-counts [1]: 1590 A-counts
- A-counts [2]: 1100 A-counts
- A-counts [3]: 1810 A-counts
- A-counts [4]: 1620 A-counts
- A-counts [5]: 1980 A-counts
- A-counts [6]: 1900 A-counts
- A-counts [7]: 2720 A-counts
- A-counts [8]: 1450 A-counts
- S/N [9]: 4.1
- A-counts [10]: 2610 A-counts
- A-counts [11]: 2000 A-counts
- Binding Percentage [12]: 100%
- S/N [13]: 2.7
- A-counts (NRF2 plus KEAP1) [14]: 1024 A-counts
- A-counts (NRF2 plus KEAP1) [15]: 1380 A-counts
- A-counts (NRF2 plus KEAP1) [16]: 1490 A-counts
- A-counts (NRF2 plus KEAP1) [17]: 1480 A-counts
- S/N [18]: 3
- S/N [19]: 3.4

B2: NRF2 isoform 1 (I28V full-length), FLAG-tagged (protein)
chain: MMDLELPPPGLPSQQDMDLIDILWRQDVDLGVSREVFDFSQRRKEYELEKQKKLEKERQEQLQKEQEKAFFAQLQLDEETGEFLPIQPAQHIQSETSGSANYSQVAHIPKSDALYFDDCMQLLAQTFPFVDDNEVSSATFQSLVPDIPGHIESPVFIATNQAQSPETSVAQVAPVDLDGMQQDIEQVWEELLSIPELQCLNIENDKLVETTMVPSPEAKLTEVDNYHFYSSIPSMEKEVGNCSPHFLNAFEDSFSSILSTEDPNQLTVNSLNSDATVNTDFGDEFYSAFIAEPSISNSMPSPATLSHSLSELLNGPIDVSDLSLCKAFNQNHPESTAEFNDSDSGISLNTSPSVASPEHSVESSSYGDTLLGLSDSEVEELDSAPGSVKQNGPKTPVHSSGDMVQPLSPSQGQSTHVHDAQCENTPEKELPVSPGHRKTPFTKDKHSSRLEAHLTRDELRAKALHIPFPVEKIINLPVVDFNEMMSKEQFNEAQLALIRDIRRRGKNKVAAQNCRKRKLENIVELEQDLDHLKDEKEKLLKEKGENDKSLHLLKKQLSTLYLEVFSMLRDEDGKPYSPSEYSLQQTRDGNVFLVPKSKKPDVKKN
- A-counts [20]: 1260 A-counts
- A-counts [21]: 1570 A-counts
- Binding Percentage (%) [22]: 63.5%

B3: NRF2 isoform 1 (I86V full-length), FLAG-tagged (protein)
chain: MMDLELPPPGLPSQQDMDLIDILWRQDIDLGVSREVFDFSQRRKEYELEKQKKLEKERQEQLQKEQEKAFFAQLQLDEETGEFLPVQPAQHIQSETSGSANYSQVAHIPKSDALYFDDCMQLLAQTFPFVDDNEVSSATFQSLVPDIPGHIESPVFIATNQAQSPETSVAQVAPVDLDGMQQDIEQVWEELLSIPELQCLNIENDKLVETTMVPSPEAKLTEVDNYHFYSSIPSMEKEVGNCSPHFLNAFEDSFSSILSTEDPNQLTVNSLNSDATVNTDFGDEFYSAFIAEPSISNSMPSPATLSHSLSELLNGPIDVSDLSLCKAFNQNHPESTAEFNDSDSGISLNTSPSVASPEHSVESSSYGDTLLGLSDSEVEELDSAPGSVKQNGPKTPVHSSGDMVQPLSPSQGQSTHVHDAQCENTPEKELPVSPGHRKTPFTKDKHSSRLEAHLTRDELRAKALHIPFPVEKIINLPVVDFNEMMSKEQFNEAQLALIRDIRRRGKNKVAAQNCRKRKLENIVELEQDLDHLKDEKEKLLKEKGENDKSLHLLKKQLSTLYLEVFSMLRDEDGKPYSPSEYSLQQTRDGNVFLVPKSKKPDVKKN
- A-counts (NRF2 plus KEAP1) [23]: 1730 A-counts
- A-counts (NRF2 plus KEAP1) [24]: 2180 A-counts
- A-counts (NRF2 plus KEAP1) [25]: 2000 A-counts
- A-counts (NRF2 plus KEAP1) [26]: 1970 A-counts

B4: NRF2 isoform 1 (Q75R full-length), FLAG-tagged (protein)
chain: MMDLELPPPGLPSQQDMDLIDILWRQDIDLGVSREVFDFSQRRKEYELEKQKKLEKERQEQLQKEQEKAFFAQLRLDEETGEFLPIQPAQHIQSETSGSANYSQVAHIPKSDALYFDDCMQLLAQTFPFVDDNEVSSATFQSLVPDIPGHIESPVFIATNQAQSPETSVAQVAPVDLDGMQQDIEQVWEELLSIPELQCLNIENDKLVETTMVPSPEAKLTEVDNYHFYSSIPSMEKEVGNCSPHFLNAFEDSFSSILSTEDPNQLTVNSLNSDATVNTDFGDEFYSAFIAEPSISNSMPSPATLSHSLSELLNGPIDVSDLSLCKAFNQNHPESTAEFNDSDSGISLNTSPSVASPEHSVESSSYGDTLLGLSDSEVEELDSAPGSVKQNGPKTPVHSSGDMVQPLSPSQGQSTHVHDAQCENTPEKELPVSPGHRKTPFTKDKHSSRLEAHLTRDELRAKALHIPFPVEKIINLPVVDFNEMMSKEQFNEAQLALIRDIRRRGKNKVAAQNCRKRKLENIVELEQDLDHLKDEKEKLLKEKGENDKSLHLLKKQLSTLYLEVFSMLRDEDGKPYSPSEYSLQQTRDGNVFLVPKSKKPDVKKN
- A-counts (NRF2 plus KEAP1) [27]: 1150 A-counts
